± gives the standard deviation of the averaged measurements.
Key:
hTERT-HMEC = experiment: percentage of EdU-negative (G0-arrested) nuclei per well, 72 h; higher = more G0 arrest; conditions: reference: sequence is the full UniProt precursor, the tested protein was the secreted form or ectodomain
MCF7 = experiment: as above; conditions: reference: sequence is the full UniProt precursor, the tested protein was the secreted form or ectodomain
[1] = protein concentration 0.0225 µM
[2] = protein concentration 0.010965 µM
[3] = protein concentration 0.10965 µM
[4] = protein concentration 0.03125 µM
[5] = protein concentration 0.3125 µM
[6] = protein concentration 0.0211825 µM
[7] = protein concentration 0.211825 µM
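Also: secreted proteins added to cultured cells, EdU pulse at the end, nuclei found by Hoechst imaging, EdU status from nuclear versus surrounding ring intensity ratio, PBS as neutral control.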

MARRRRRACIALFLVLLFAFGTLMGLRTLKAPDGLPALGPGLELAPFERRPEGAPAPAARAPAAPAAPPPPPPPPRTADPGGSPGPAPAEAEPAPVQSLRVYSDLHAFYYSWYGSPRREGHYIHWDHVMVPHWDPKISASYPRGRHSPPDDLGSSFYPELGPYSSRDPEVLREHMTQLKEAAIGVLVLSWYPPGMADDNGEPSDDLVPAILDTAHQYSIQVAFHIQPYKGRDDITVHDNIKYIIDTYGSHGAFYRYKNSMGKSLPLFYIYDSYLTSPEAWAHLLTPNGPHSIRNTPYDGVFIALLVEEGHTHDILAAGFDGMYTYFASNGFSFGSSHQNWKAVKNFCDANNLMFIPSVGPGYIDTSIRPWNNHNTRNRVNGKYYETALQAALTVRPEIVSITSFNEWHEGTQIEKAIPKKTPTRLYLDYLPHQPSLYLELTRRWAEHFIKEKEQWLM [Q5VSG8]
percentage of EdU-negative (hTERT-HMEC; [1]): 4.99 ± 0.62%
percentage of EdU-negative (hTERT-HMEC; protein concentration 0.225 µM): 9.23 ± 0.73%
percentage of EdU-negative (MCF7; [1]): 25.6 ± 0.44%
percentage of EdU-negative (MCF7; protein concentration 0.225 µM): 28.3 ± 2.4%

MARRSRHRLLLLLLRYLVVALGYHKAYGFSAPKDQQVVTAVEYQEAILACKTPKKTVSSRLEWKKLGRSVSFVYYQQTLQGDFKNRAEMIDFNIRIKNVTRSDAGKYRCEVSAPSEQGQNLEEDTVTLEVLVAPAVPSCEVPSSALSGTVVELRCQDKEGNPAPEYTWFKDGIRLLENPRLGSQSTNSSYTMNTKTGTLQFNTVSKLDTGEYSCEARNSVGYRRCPGKRMQVDDLNISGIIAAVVVVALVISVCGLGVCYAQRKGYFSKETSFQKSNSSSKATTMSENDFKHTKSFII
percentage of EdU-negative (hTERT-HMEC; [1]): 5.13 ± 0.27%
percentage of EdU-negative (hTERT-HMEC; protein concentration 0.225 µM): 4.52 ± 0.093%
percentage of EdU-negative (MCF7; [1]): 24.2 ± 0.62%
percentage of EdU-negative (MCF7; protein concentration 0.225 µM): 25.4 ± 2.1%

MARSLVCLGVIILLSAFSGPGVRGGPMPKLADRKLCADQECSHPISMAVALQDYMAPDCRFLTIHRGQVVYVFSKLKGRGRLFWGGSVQGDYYGDLAARLGYFPSSIVREDQTLKPGKVDVKTDKWDFYCQ
percentage of EdU-negative (hTERT-HMEC; [2]): 5.39 ± 0.091%
percentage of EdU-negative (hTERT-HMEC; [3]): 5.67 ± 0.4%
percentage of EdU-negative (MCF7; [2]): 26.1 ± 1.1%
percentage of EdU-negative (MCF7; [3]): 26.2 ± 1.9%

MARSNLPLALGLALVAFCLLALPRDARARPQERMVGELRDLSPDDPQVQKAAQAAVASYNMGSNSIYYFRDTHIIKAQSQLVAGIKYFLTMEMGSTDCRKTRVTGDHVDLTTCPLAAGAQQEKLRCDFEVLVVPWQNSSQLLKHNCVQM
percentage of EdU-negative (hTERT-HMEC; [4]): 5.74 ± 0.7%
percentage of EdU-negative (hTERT-HMEC; [5]): 6.46 ± 0.57%
percentage of EdU-negative (MCF7; [4]): 26.7 ± 0.57%
percentage of EdU-negative (MCF7; [5]): 25.4 ± 1.2%

MARSPGRAYALLLLLICFNVGSGLHLQVLSTRNENKLLPKHPHLVRQKRAWITAPVALREGEDLSKKNPIAKIHSDLAEERGLKITYKYTGKGITEPPFGIFVFNKDTGELNVTSILDREETPFFLLTGYALDARGNNVEKPLELRIKVLDINDNEPVFTQDVFVGSVEELSAAHTLVMKINATDADEPNTLNSKISYRIVSLEPAYPPVFYLNKDTGEIYTTSVTLDREEHSSYTLTVEARDGNGEVTDKPVKQAQVQIRILDVNDNIPVVENKVLEGMVEENQVNVEVTRIKVFDADEIGSDNWLANFTFASGNEGGYFHIETDAQTNEGIVTLIKEVDYEEMKNLDFSVIVANKAAFHKSIRSKYKPTPIPIKVKVKNVKEGIHFKSSVISIYVSESMDRSSKGQIIGNFQAFDEDTGLPAHARYVKLEDRDNWISVDSVTSEIKLAKLPDFESRYVQNGTYTVKIVAISEDYPRKTITGTVLINVEDINDNCPTLIEPVQTICHDAEYVNVTAEDLDGHPNSGPFSFSVIDKPPGMAEKWKIARQESTSVLLQQSEKKLGRSEIQFLISDNQGFSCPEKQVLTLTVCECLHGSGCREAQHDSYVGLGPAAIALMILAFLLLLLVPLLLLMCHCGKGAKGFTPIPGTIEMLHPWNNEGAPPEDKVVPSFLPVDQGGSLVGRNGVGGMAKEATMKGSSSASIVKGQHEMSEMDGRWEEHRSLLSGRATQFTGATGAIMTTETTKTARATGASRDMAGAQAAAVALNEEFLRNYFTDKAASYTEEDENHTAKDCLLVYSQEETESLNASIGCCSFIEGELDDRFLDDLGLKFKTLAEVCLGQKIDINKEIEQRQKPATETSMNTASHSLCEQTMVNSENTYSSGSSFPVPKSLQEANAEKVTQEIVTERSVSSRQAQKVATPLPDPMASRNVIATETSYVTGSTMPPTTVILGPSQPQSLIVTERVYAPASTLVDQPYANEGTVVVTERVIQPHGGGSNPLEGTQHLQDVPYVMVRERESFLAPSSGVQPTLAMPNIAVGQNVTVTERVLAPASTLQSSYQIPTENSMTARNTTVSGAGVPGPLPDFGLEESGHSNSTITTSSTRVTKHSTVQHSYS [J3KSI6]
percentage of EdU-negative (hTERT-HMEC; [1]): 4.92 ± 0.3%
percentage of EdU-negative (hTERT-HMEC; protein concentration 0.225 µM): 5.13 ± 0.22%
percentage of EdU-negative (MCF7; [1]): 25 ± 1.2%
percentage of EdU-negative (MCF7; protein concentration 0.225 µM): 26.57 ± 0.18%

MARVLGAPVALGLWSLCWSLAIATPLPPTSAHGNVAEGETKPDPDVTERCSDGWSFDATTLDDNGTMLFFKGEFVWKSHKWDRELISERWKNFPSPVDAAFRQGHNSVFLIKGDKVWVYPPEKKEKGYPKLLQDEFPGIPSPLDAAVECHRGECQAEGVLFFQGDREWFWDLATGTMKERSWPAVGNCSSALRWLGRYYCFQGNQFLRFDPVRGEVPPRYPRDVRDYFMPCPGRGHGHRNGTGHGNSTHHGPEYMRCSPHLVLSALTSDNHGATYAFSGTHYWRLDTSRDGWHSWPIAHQWPQGPSAVDAAFSWEEKLYLVQGTQVYVFLTKGGYTLVSGYPKRLEKEVGTPHGIILDSVDAAFICPGSSRLHIMAGRRLWWLDLKSGAQATWTELPWPHEKVDGALCMEKSLGPNSCSANGPGLYLIHGPNLYCYSDVEKLNAAKALPQPQNVTSLLGCTH
percentage of EdU-negative (hTERT-HMEC; [6]): 5.25 ± 0.85%
percentage of EdU-negative (hTERT-HMEC; [7]): 6.11 ± 0.9%
percentage of EdU-negative (MCF7; [6]): 26.5 ± 0.3%
percentage of EdU-negative (MCF7; [7]): 26.7 ± 0.95%

MARVLKAAAANAVGLFSRLQAPIPTVRASSTSQPLDQVTGSVWNLGRLNHVAIAVPDLEKAAAFYKNILGAQVSEAVPLPEHGVSVVFVNLGNTKMELLHPLGRDSPIAGFLQKNKAGGMHHICIEVDNINAAVMDLKKKKIRSLSEEVKIGAHGKPVIFLHPKDCGGVLVELEQA [Q96PE7]
percentage of EdU-negative (hTERT-HMEC; [1]): 5.15 ± 0.63%
percentage of EdU-negative (hTERT-HMEC; protein concentration 0.225 µM): 6.08 ± 0.26%
percentage of EdU-negative (MCF7; [1]): 23.93 ± 0.19%
percentage of EdU-negative (MCF7; protein concentration 0.225 µM): 23.1 ± 1.4%

— the supplement of paper PMC11316812
